Experimental data as given in the supplement of paper PMC10567573.

B1: SPDEF (parent)
chain: FQELAGKELCAMSEEQFRQRSPLG

Variants of: B1
Assay: protein stability index of a GFP-peptide fusion (GPS, HEK-293T) (PSI 1-6); higher = more stable
Settings: c terminus: a fixed tail appended
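Further: lentivirally expressed fusions sorted by FACS into six bins by GFP to DsRed ratio, PSI derived from sequencing read proportions per bin multiplied by bin number.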

Row | Variant | protein stability index
1 | FQELAGKELCAMSEEQFRKRSPLG [Q19K] | 2.74
2 | FQELAGKELCAMSEEQFRNRSPLG [Q19N] | 2.11
3 | FQELAGKELCAMSEEQFRVRSPLG [Q19V] | 2.42
4 | FQELAGKELCAMSEEQFRRRSPLG [Q19R] | 2.4
5 | FQELAGKELCAMSEEQFRMRSPLG [Q19M] | 2.33
6 | FQELAGKELCAMSEEQFRIRSPLG [Q19I] | 2.39
7 | FQELAGKELCAMSEEQFRYRSPLG [Q19Y] | 2.3
8 | FQELAGKELCAMSEEQFRQASPLG [R20A] | 2.79
9 | FQELAGKELCAMSEEQFRQLSPLG [R20L] | 2.55
10 | FQELAGKELCAMSEEQFRQKSPLG [R20K] | 2.51
11 | FQELAGKELCAMSEEQFRQISPLG [R20I] | 2.86
12 | FQELAGKELCAMSEEQFRQCSPLG [R20C] | 2.4
13 | FQELAGKELCAMSEEQFRQTSPLG [R20T] | 2.91
14 | FQELAGKELCAMSEEQFRQVSPLG [R20V] | 2.1
15 | FQELAGKELCAMSEEQFRQMSPLG [R20M] | 2.1
16 | FQELAGKELCAMSEEQFRQDSPLG [R20D] | 3.47
17 | FQELAGKELCAMSEEQFRQHSPLG [R20H] | 2.74
18 | FQELAGKELCAMSEEQFRQPSPLG [R20P] | 2.58
19 | FQELAGKELCAMSEEQFRQGSPLG [R20G] | 2.49
20 | FQELAGKELCAMSEEQFRQNSPLG [R20N] | 3.04
21 | FQELAGKELCAMSEEQFRQESPLG [R20E] | 3.71
22 | FQELAGKELCAMSEEQFRQYSPLG [R20Y] | 2.43
23 | FQELAGKELCAMSEEQFRQFSPLG [R20F] | 2.2
24 | FQELAGKELCAMSEEQFRQWSPLG [R20W] | 2.52

Row | Variant | protein stability index
25 | FQELAGKELCAMSEEQFRQSSPLG [R20S] | 2.88
26 | FQELAGKELCAMSEEQFRQQSPLG [R20Q] | 2.72
27 | FQELAGKELCAMSEEQFRQRSPLE [G24E] | 2.56
28 | FQELAGKELCAMSEEQFRQRSPLN [G24N] | 2.72
29 | FQELAGKELCAMSEEQFRQRSPLT [G24T] | 2.76
30 | FQELAGKELCAMSEEQFRQRSPLD [G24D] | 3.14
31 | FQELAGKELCAMSEEQFRQRSPLQ [G24Q] | 2.44
32 | FQELAGKELCAMSEEQFRQRSPLK [G24K] | 3.44
33 | FQELAGKELCAMSEEQFRQRSPLP [G24P] | 2.89
34 | FQELAGKELCAMSEEQFRQRSPLR [G24R] | 2.42
35 | FQELAGKELCAMSEEQFRQRSPLM [G24M] | 2.78
36 | FQELAGKELCAMSEEQFRQRSPLW [G24W] | 1.93
37 | FQELAGKELCAMSEEQFRQRSPLL [G24L] | 2.67
38 | FQELAGKELCAMSEEQFRQRSPLV [G24V] | 2.43
39 | FQELAGKELCAMSEEQFRQRSPLA [G24A] | 2.94
40 | FQELAGKELCAMSEEQFRQRSPLS [G24S] | 2.74
41 | FQELAGKELCAMSEEQFRQRSPLC [G24C] | 2.49
42 | FQELAGKELCAMSEEQFRQRSPLY [G24Y] | 2.12
43 | FQELAGKELCAMSEEQFRQRSPLF [G24F] | 2.05
44 | FQELAGKELCAMSEEQFRQRSPLH [G24H] | 2.44
45 | FQELAGKELCAMSEEQFRQRSPLI [G24I] | 2.1
46 | FQELAGKELCAMSEEQPRQRSPLG [F17P] | 3.28
47 | FQELAGKELCAMSEEQMRQRSPLG [F17M] | 2.66
48 | FQELAGKELCAMSEEQKRQRSPLG [F17K] | 3.25

Row | Variant | protein stability index
49 | FQELAGKELCAMSEEQVRQRSPLG [F17V] | 3.1
50 | FQELAGKELCAMSEEQQRQRSPLG [F17Q] | 3.34
51 | FQELAGKELCAMSEEQSRQRSPLG [F17S] | 3.14
52 | FQELAGKELCAMSEEQRRQRSPLG [F17R] | 2.97
53 | FQELAGKELCAMSEEQNRQRSPLG [F17N] | 3.02
54 | FQELAGKELCAMSEEQLRQRSPLG [F17L] | 3.14
55 | FQELAGKELCAMSEEQTRQRSPLG [F17T] | 3.63
56 | FQELAGKELCAMSEEQYRQRSPLG [F17Y] | 2.93
57 | FQELAGKELCAMSEEQWRQRSPLG [F17W] | 2.67
58 | FQELAGKELCAMSEEQFRQRSPKG [L23K] | 3.21
59 | FQELAGKELCAMSEEQFRQRSPCG [L23C] | 2.63
60 | FQELAGKELCAMSEEQFRQRSPYG [L23Y] | 2.59
61 | FQELAGKELCAMSEEQFRQRSPQG [L23Q] | 3.58
62 | FQELAGKELCAMSEEQFRQRSPEG [L23E] | 3.48
63 | FQELAGKELCAMSEEQFRQRSPFG [L23F] | 2.78
64 | FQELAGKELCAMSEEQFRQRSPDG [L23D] | 2.8
65 | FQELAGKELCAMSEEQFRQRSPMG [L23M] | 2.84
66 | FQELAGKELCAMSEEQFRQRSPWG [L23W] | 1.69
67 | FQELAGKELCAMSEEQFRQRSPPG [L23P] | 3.25
68 | FQELAGKELCAMSEEQFRQRSPGG [L23G] | 3.31
69 | FQELAGKELCAMSEEQFRQRSPAG [L23A] | 3.02
70 | FQELAGKELCAMSEEQFRQRSPVG [L23V] | 3.09
71 | FQELAGKELCAMSEEQFRQRSPSG [L23S] | 3.16
72 | FQELAGKELCAMSEEQFRQRSPTG [L23T] | 2.77

Row | Variant | protein stability index
73 | FQELAGKELCAMSEEQFRQRSPRG [L23R] | 3.24
74 | FQELAGKELCAMSEEQFRQRSPIG [L23I] | 2.9
75 | FQELAGKELCAMSEEQFRQRSPHG [L23H] | 3.18
76 | FQELAGKELCAMSEEQFRQRSPNG [L23N] | 3.46
77 | FQELAGKELCAMSEEQFRQRTPLG [S21T] | 2.59
78 | FQELAGKELCAMSEEQFRQRRPLG [S21R] | 2.95
79 | FQELAGKELCAMSEEQFRQRMPLG [S21M] | 2.74
80 | FQELAGKELCAMSEEQFRQRQPLG [S21Q] | 2.98
81 | FQELAGKELCAMSEEQFRQRFPLG [S21F] | 3.17
82 | FQELAGKELCAMSEEQFRQRIPLG [S21I] | 2.43
83 | FQELAGKELCAMSEEQFRQRCPLG [S21C] | 2.51
84 | FQELAGKELCAMSEEQFRQRYPLG [S21Y] | 2.96
85 | FQELAGKELCAMSEEQFRQRLPLG [S21L] | 2.6
86 | FQELAGKELCAMSEEQFRQRAPLG [S21A] | 2.73
87 | FQELAGKELCAMSEEQFRQRNPLG [S21N] | 2.6
88 | FQELAGKELCAMSEEQFRQRVPLG [S21V] | 2.99
89 | FQELAGKELCAMSEEQFRQRDPLG [S21D] | 3.26
90 | FQELAGKELCAMSEEQFRQRKPLG [S21K] | 2.44
91 | FQELAGKELCAMSEEQFRQRPPLG [S21P] | 2.43
92 | FQELAGKELCAMSEEQFRQRHPLG [S21H] | 2.82
93 | FQELAGKELCAMSEEQFRQRGPLG [S21G] | 2.52
94 | FQELAGKELCAMSEEQFRQREPLG [S21E] | 2.58
95 | FQELAGKELCAMSEEQFRQRWPLG [S21W] | 2.4
